The values below come from patent publication US20250250357A1 (NANJING ZAIMING PHARMACEUTICAL, published 2025).

To fix the notation:
B1: S009-F8-8.22 (antibody, human IgG1, kappa, V domains shown)
VH: EVQLQQSGPELVKPGASVKMSCKASGYTFTDYIIHWVKQSHGKSLEWIAYIFPNNGGTGYNQKFRGKATLTVNKSSSTAYMELRSLTSEDSAVYYCARWRLRQYFDVWGTGTTVTVSS
VL: DIVMTQSQKFMSTIVGDRVSITCKASQNVGTAVAWYQQKPGQSPKLLIYSASNRYTGVPDRFTGSGSGTDFTLTISNMQSEDLADYFCQQYSSYPLTFGGGTKLEIKR
notes: human-murine chimeric antibody, human IgG1/kappa constant regions
B2: S009-F8-32.3 (antibody, human IgG1, kappa, V domains shown)
VH: QVQLKESGPGLVAPSQSLSITCTVSGFSLSSYAISWVRQPPGKGLEWLGVIWTGGGTNYNSALKSRLSISKDNSKSQVFLKMNSLQTDDTARFYCARNNYGRLDYAMDYWGQGTSVTVSS
VL: DVVMTQTPLSLPVSLGDQASISCRSSQSLVHGNGNTYLHWYLQKPGQSPKLLIYKVSNRFSGVPDRFSGSGSGTDFTLKISRVETEDLGVYFCSQSTHVPFTFGSGTKLEIKR
notes: as for B1
B3: S009-F8-29.1 (antibody, human IgG1, kappa, V domains shown)
VH: QVQLQQSGAELARPGASVKMSCKASGYTFISYTMHWVKQRPGQGLEWIGYINPSSGYTKYNQKFKDKATLTADKSSSTAYMQLNSLTSEDSAVYYCARYYSNPDYYAMDYWGQGTSVTVSS
VL: QIVLTQSPAIMSASPGEKVTITCSASSSVSYMHWFQQKPGTSPKLWIYSTSNLASGVPARFSGSGSGTSYSLTISRMEAEDAATYYCQQRSSYPLTFGGGTKLELKR
notes: as for B1

For one experiment, the target named is T1, human MSLN-FL-his protein (human, UniProt Q13421 296-580).
T1 construct: made in HEK293E cells, purified on nickel column; also called hMSLN-FL-his; human MSLN full-length protein; not shown: His tag
T1 sequence (Q13421 other isoform, or with tags, fused parts or gaps): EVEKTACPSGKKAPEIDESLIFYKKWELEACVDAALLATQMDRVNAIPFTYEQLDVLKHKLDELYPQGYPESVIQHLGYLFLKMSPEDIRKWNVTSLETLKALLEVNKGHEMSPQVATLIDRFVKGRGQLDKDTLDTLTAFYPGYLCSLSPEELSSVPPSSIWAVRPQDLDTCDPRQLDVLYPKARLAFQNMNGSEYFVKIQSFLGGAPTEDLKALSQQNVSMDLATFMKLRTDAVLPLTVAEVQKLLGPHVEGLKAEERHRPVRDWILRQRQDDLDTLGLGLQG
The experiment can be described thus: competitive ELISA; row F8-24.14. A general note: An ELISA detects its analyte on a solid surface through an enzyme-linked reagent.
For B1, the competition rate amounted to 91.1%.

As to B2, the competition rate amounted to 95%.

In the case of B3, the competition rate stood at 89.8%.

The target in another experiment is T1, human MSLN-FL-his protein. Description: SPR (Biacore), antibody captured on Protein A chip.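 Note: flow cell at 25 °C, antigen injected for 240 s at five concentrations from 200 nM downward, dissociation followed up to 600 s, double-referenced, fitted with Langmuir 1:1 model.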 In general terms: Surface plasmon resonance follows binding to a sensor surface in real time, without labels.
Usually Kd stands for the equilibrium constant for the complex coming apart. A word on the koff: it is the first-order rate constant of dissociation. Usually kon stands for the rate constant with which the complex forms. High values mean fast association, low ones slow association. In turn, B1 had a Kd of 12.8 nM, a koff of 0.00937 s⁻¹ and a kon of 732000 M⁻¹ s⁻¹.

For the molecule B2, the Kd stood at 6.5 nM, the koff was 0.00331 s⁻¹ and the kon worked out at 510000 M⁻¹ s⁻¹.

In turn, B3 returned a Kd of 27.4 nM, a koff of 0.0199 s⁻¹ and a kon of 728000 M⁻¹ s⁻¹.

For a further experiment, the target named is T1, human MSLN-FL-his protein. The experiment can be described thus: competitive ELISA; row Tab021.
Description: (§1) In order to identify antigen-binding sites of antibodies, MSLN chimeric antibodies were grouped using competitive ELISA.
(§2) The chimeric antibodies were diluted to 2 μg/mL with PBS and allowed to coat 96-well high-adsorption ELISA plates at 50 μL/well. After the plates were coated at 4° C. overnight, 250 μL of a blocking buffer (PBS containing 2% (w/w) BSA) was added for two hours of blocking at room temperature. 40 μg/mL of the antibodies to be tested were added, and then the human MSLN-FL-His protein with an EC₈₀ concentration corresponding to each of the antibodies to be tested was added for incubation for 2 h. The plates were washed 5 times with PBS, an HRP-labeled anti-His secondary antibody (purchased from Genescript, Cat. No. A00612) was then added for incubation for 1 h, and the plates were washed 5 times again. A TMB substrate was added at 50 μL/well, and after 10 minutes of incubation at room temperature, a stop solution (1.0 M HCl) was added at 50 μL/well. OD₄₅₀ nm values were read using an ELISA plate reader (Insight, purchased from PerkinElmer), and the competition rate between the antibodies was calculated according to the OD₄₅₀ nm values using a formula.
On to B1, for which the competition rate worked out at 12.6%.

In the case of B2, the competition rate came to 10.9%.

With B3, the competition rate was 11.1%.

The target of the next experiment is T1, human MSLN-FL-his protein. The experiment can be described thus: competitive ELISA; row F8-9.16.
Description: as §1, §2
On to B1, for which the competition rate was -52.1%.

In the case of B2, the competition rate is -113%.

Turning to B3, the competition rate was -37.3%.

A further experiment has as its target T1, human MSLN-FL-his protein. The experiment can be described thus: competitive ELISA; row F8-29.1.
Description: as §1, §2
Turning to B1, the competition rate stood at 59.2%.

Regarding B2, the competition rate was determined as 65.9%.

On to B3, for which the competition rate amounted to 62.2%.

In a further experiment the target is T2, human MSLN-R3 protein expressed on HEK293T cells (HEK293T-hMSLN-R3) (human, UniProt Q13421 487-606).
T2 construct: C-terminal limit uncertain
T2 sequence (Q13421 495-614): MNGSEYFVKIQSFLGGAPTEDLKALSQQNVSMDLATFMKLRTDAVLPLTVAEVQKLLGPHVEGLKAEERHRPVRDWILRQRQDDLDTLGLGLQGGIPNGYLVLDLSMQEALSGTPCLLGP
The experiment can be described thus: FACS on HEK293T-hMSLN-R3 cells.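 Note: chimeric antibodies incubated with cells on ice for 2 h, binding read by flow cytometry as mean fluorescence intensity.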
Take B1: the “Maximum mean fluorescence intensity” value is 122 and the binding result is on record as “no binding”.

B2: the “Maximum mean fluorescence intensity” value stood at 50 and the binding result was “no binding”.

Turning to B3, the “Maximum mean fluorescence intensity” value was determined as 69 and the binding result is recorded as “no binding”.

A further experiment has as its target T1, human MSLN-FL-his protein. The experiment can be described thus: competitive ELISA; row F8-8.22.
Description: as §1, §2
Turning to B1, the competition rate turned out to be 92.2%.

B2: the competition rate came to 94.4%.

As to B3, the competition rate is 88.4%.

The next experiment concerns the target T1, human MSLN-FL-his protein. The experiment can be described thus: competitive ELISA; row F8-22.23.
Description: as §1, §2
For B1, the competition rate stood at 96.1%.

For B2, the competition rate worked out at 96.6%.

B3: the competition rate was 88.5%.

A further experiment addresses T1, human MSLN-FL-his protein. Description: competitive ELISA; row F8-33.12.
Description: as §1, §2
For the molecule B1, the competition rate stood at 53.5%.

In the case of B2, the competition rate stood at 56.5%.

As to B3, the competition rate was 47.3%.

The target of a further experiment is T1, human MSLN-FL-his protein. The experiment can be described thus: competitive ELISA; row Tab142.
Description: as §1, §2
As for B1, the competition rate was 33.8%.

For the molecule B2, the competition rate is 40.6%.

On to B3, for which the competition rate was found to be 36.8%.

The target in the next experiment is T1, human MSLN-FL-his protein. The experiment can be described thus: competitive ELISA; row F8-28.23.
Description: as §1, §2
As to B1, the competition rate is 97.4%.

For B2, the competition rate came out at 102%.

As for B3, the competition rate is 96%.

Another experiment has as its target T1, human MSLN-FL-his protein. Description: competitive ELISA; row F8-32.3.
Description: as §1, §2
Regarding B1, the competition rate came to 77.7%.

Turning to B2, the competition rate was found to be 79.3%.

For the molecule B3, the competition rate came to 75.8%.

The target in a further experiment is T3, human MSLN protein endogenously expressed on OVCAR3 tumor cells (human, UniProt Q13421 296-598).
T3 construct: whole, on cells; endogenous expression on a tumor cell line; also called human mesothelin
T3 sequence (Q13421 other isoform, or with tags, fused parts or gaps): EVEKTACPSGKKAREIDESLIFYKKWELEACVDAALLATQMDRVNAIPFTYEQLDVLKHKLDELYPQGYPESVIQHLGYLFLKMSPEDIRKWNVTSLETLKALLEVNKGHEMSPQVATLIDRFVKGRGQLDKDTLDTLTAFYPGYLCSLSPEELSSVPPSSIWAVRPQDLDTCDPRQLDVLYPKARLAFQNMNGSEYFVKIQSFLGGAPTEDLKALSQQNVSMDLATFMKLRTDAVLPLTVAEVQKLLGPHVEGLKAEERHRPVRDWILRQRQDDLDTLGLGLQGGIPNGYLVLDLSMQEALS
The experiment can be described thus: FACS on OVCAR3 cells.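 Note: flow cytometry of chimeric antibody binding to OVCAR3 cells, 2 h on ice, read as cellular mean fluorescence intensity.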
In general, EC50 refers to the concentration at which the effect is half-maximal. Read a high EC50 as a less potent agent. For the molecule B1, the EC50 was 9.9 nM and the “Maximum mean fluorescence intensity” value was 4270.

As for B2, the EC50 was determined as 14.7 nM and the “Maximum mean fluorescence intensity” value came out at 8270.

As for B3, the EC50 was determined as 33.4 nM and the “Maximum mean fluorescence intensity” value is 5430.

The target in a further experiment is T1, human MSLN-FL-his protein. Description: competitive ELISA; row F8-36.12.
Description: as §1, §2
B1: the competition rate was -138%.

Take B2: the competition rate is -164%.

With B3, the competition rate was -146%.
